In paper PMC8809517, “Cofactor-independent RNA editing by a synthetic S-type PPR protein”:

T1: GFP-9S library array, motif 4 ND N98C;D124E (synthetic construct, N98C;D124E)
T1 chain: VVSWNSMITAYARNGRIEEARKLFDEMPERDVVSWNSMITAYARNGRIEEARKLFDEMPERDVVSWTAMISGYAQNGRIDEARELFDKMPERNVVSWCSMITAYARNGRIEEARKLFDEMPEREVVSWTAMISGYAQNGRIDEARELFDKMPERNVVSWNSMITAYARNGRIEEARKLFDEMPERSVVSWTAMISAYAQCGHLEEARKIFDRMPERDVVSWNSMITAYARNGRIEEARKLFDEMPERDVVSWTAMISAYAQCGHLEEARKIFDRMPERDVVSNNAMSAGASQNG

T2: 9S-E2 (synthetic construct)
T2 chain: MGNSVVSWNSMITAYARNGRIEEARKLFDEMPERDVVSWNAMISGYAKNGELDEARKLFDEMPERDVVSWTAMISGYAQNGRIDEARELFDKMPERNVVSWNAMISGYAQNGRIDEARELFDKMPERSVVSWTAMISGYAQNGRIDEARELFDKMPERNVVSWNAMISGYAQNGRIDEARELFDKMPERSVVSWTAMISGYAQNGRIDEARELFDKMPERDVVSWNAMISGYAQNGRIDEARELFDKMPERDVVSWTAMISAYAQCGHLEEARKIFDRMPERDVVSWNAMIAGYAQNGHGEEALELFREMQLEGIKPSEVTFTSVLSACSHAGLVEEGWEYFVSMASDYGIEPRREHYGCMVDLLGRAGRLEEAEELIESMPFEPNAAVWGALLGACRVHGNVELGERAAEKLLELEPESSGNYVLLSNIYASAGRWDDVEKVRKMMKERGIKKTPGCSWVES

T3: 9P-S2 (synthetic construct)
T3 chain: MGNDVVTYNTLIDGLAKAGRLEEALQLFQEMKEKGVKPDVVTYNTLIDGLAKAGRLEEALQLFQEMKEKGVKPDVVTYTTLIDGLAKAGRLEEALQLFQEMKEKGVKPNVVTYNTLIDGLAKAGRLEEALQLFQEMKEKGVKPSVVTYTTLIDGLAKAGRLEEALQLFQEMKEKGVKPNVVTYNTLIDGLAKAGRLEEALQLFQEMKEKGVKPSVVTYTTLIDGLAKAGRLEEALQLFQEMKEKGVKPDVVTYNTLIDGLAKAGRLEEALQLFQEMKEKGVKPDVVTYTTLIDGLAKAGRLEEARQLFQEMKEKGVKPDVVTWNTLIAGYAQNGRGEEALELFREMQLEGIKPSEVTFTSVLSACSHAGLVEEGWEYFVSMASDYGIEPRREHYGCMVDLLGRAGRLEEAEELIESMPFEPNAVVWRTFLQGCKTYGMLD

T4: 9S (synthetic construct)
T4 chain: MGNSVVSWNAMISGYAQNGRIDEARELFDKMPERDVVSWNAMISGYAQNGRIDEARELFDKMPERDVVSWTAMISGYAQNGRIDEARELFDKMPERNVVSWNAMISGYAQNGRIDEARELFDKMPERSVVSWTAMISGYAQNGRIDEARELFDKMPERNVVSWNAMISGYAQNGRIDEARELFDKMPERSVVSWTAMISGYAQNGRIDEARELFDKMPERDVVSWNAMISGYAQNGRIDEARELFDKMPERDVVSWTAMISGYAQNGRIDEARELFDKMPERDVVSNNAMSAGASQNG

T5: 9S-S2 PPR (synthetic construct)
T5 chain: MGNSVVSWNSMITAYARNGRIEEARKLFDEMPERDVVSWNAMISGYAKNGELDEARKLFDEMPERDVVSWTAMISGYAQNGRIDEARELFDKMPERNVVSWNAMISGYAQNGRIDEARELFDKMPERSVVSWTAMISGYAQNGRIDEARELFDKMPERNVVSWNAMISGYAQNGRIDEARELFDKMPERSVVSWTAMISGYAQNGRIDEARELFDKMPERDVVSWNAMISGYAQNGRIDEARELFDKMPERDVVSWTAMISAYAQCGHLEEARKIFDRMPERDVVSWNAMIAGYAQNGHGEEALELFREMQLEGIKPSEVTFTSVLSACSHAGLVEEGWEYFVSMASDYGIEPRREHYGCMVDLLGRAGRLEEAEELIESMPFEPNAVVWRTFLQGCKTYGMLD


Tests used:
[1] = target: T1, GFP-9S library array, motif 4 ND …; experiment: high-throughput RNA pulldown from lysate on Ni-NTA beads; HRP: 50 mM Tris pH 8, 150 mM NaCl, 1 mM beta-mercaptoethanol, 50 ug/ml BSA, 3 ug/ml yeast RNA, 0.5% heparin; ITC and FP: Tris pH 8, 200 mM KCl, 5% glycerol; MST: 50 mM Tris pH 8, 200 mM NaCl, 1 mM DTT, BSA, heparin, 0.05% Tween 20; settings: tags: N-terminal His-eGFP
9S-E2 = target: T2, 9S-E2; experiment: microscale thermophoresis; HRP: 50 mM Tris pH 8, 150 mM NaCl, 1 mM beta-mercaptoethanol, 50 ug/ml BSA, 3 ug/ml yeast RNA, 0.5% heparin; ITC and FP: Tris pH 8, 200 mM KCl, 5% glycerol; MST: 50 mM Tris pH 8, 200 mM NaCl, 1 mM DTT, BSA, heparin, 0.05% Tween 20; settings: protein: recombinant; tags: N-terminal TRX-His; label: 5' Cy5
9P-S2 = target: T3, 9P-S2; experiment: high-throughput RNA pulldown on Ni-NTA beads; HRP: 50 mM Tris pH 8, 150 mM NaCl, 1 mM beta-mercaptoethanol, 50 ug/ml BSA, 3 ug/ml yeast RNA, 0.5% heparin; ITC and FP: Tris pH 8, 200 mM KCl, 5% glycerol; MST: 50 mM Tris pH 8, 200 mM NaCl, 1 mM DTT, BSA, heparin, 0.05% Tween 20; settings: protein: recombinant; tags: N-terminal TRX-His; label: 5' Cy5
9S = target: T4, 9S; experiment: as above; settings: protein: recombinant; tags: N-terminal His-eGFP; label: 5' Cy5
9S-S2 PPR = target: T5, 9S-S2 PPR; experiment: as above; settings: protein: recombinant; tags: N-terminal TRX-His; label: 5' Cy5

Binder | Kd ([1]; label: 5' IRDye 800CW) | Kd ([1]; label: 5' Cy5) | further results
AUUAUACGUGA (ssRNA) [IR-rpoA-U] | 0.17 µM |  | 
AUUACACGUGA (ssRNA) [Cy5-rpoA] |  | 0.503 µM | Kd (9S-E2): 0.0068 µM; Kd (9P-S2): 0.068 µM; Kd (9S): 0.012 µM; Kd (9S-S2 PPR): 0.0064 µM
AUUAAACGUGA (ssRNA) [IR-rpoA-A] | 0.146 µM |  | 
AUUAGACGUGA (ssRNA) [Cy5-rpoA-G] |  | 0.0395 µM | 
